Experimental data published in the RNAGym collection of RNA variant scans (doi:10.7554/elife.80360).

B1: HDV Ribozyme (parent)
chain: GGCCGGCAUGGUCCCAGCCUCCUCGCUGGCGCCGGCUGGGCAACAUUCCGAGGGGACCGUCCCCUCGGUAAUGGCGAAUGGGACCCA

Variants of: B1
Assay: self-cleavage, relative activity (ratio to wild type); higher = more cleavage; co-transcriptional

| Variant | self-cleavage |
| --- | --- |
| C26U C32G | 0.125 |
| C26G A56U | 1.23 |
| C26G A56C | 1.25 |
| G25U G52A | 0.166 |
| G25U G52U | 0.234 |
| C26G C48G | 1.02 |
| C26G C48U | 0.877 |
| C26G G52A | 0.867 |
| C26A U60C | 0.81 |
| C26A U60G | 1.2 |
| C26G C41A | 1.04 |
| G25U C85U | 0.415 |
| C26G C30U | 0.415 |
| C26G C30A | 0.623 |
| C26G G54C | 0.782 |
| C26G G54U | 0.941 |
| G25U G80A | 0.117 |
| C26A A42G | 0.665 |
| C26A A42C | 0.227 |
| C26U A42G | 0.902 |
| G25U U65A | 0 |

| Variant | self-cleavage |
| --- | --- |
| G25U U65C | 0.237 |
| C26G U46C | 1.15 |
| C26G U47G | 1.08 |
| C26G U47A | 0.87 |
| C26G U47C | 0.95 |
| C26U C48A | 0.917 |
| C26U C48G | 1.07 |
| C26U C48U | 1.01 |
| G25U G55C | 0.228 |
| C26G G50C | 0.997 |
| C26G G50U | 1.05 |
| C26A G81U | 0.519 |
| C26A G81C | 0.193 |
| G25U G28U | 0.0652 |
| G25U G28C | 0.106 |
| C26G G28C | 0.0504 |
| C26G G28U | 0.0396 |
| G25C G54U | 0.0652 |
| G25C G54A | 0.219 |
| G25U | 0.177 |
| G25U A83G | 0.0978 |

| Variant | self-cleavage |
| --- | --- |
| G25U A83U | 0.0791 |
| C26A U72A | 0.692 |
| C26A C85A | 0.997 |
| C26A C85U | 0.942 |
| C26A C85G | 1.15 |
| C26G A78G | 0.633 |
| C26G A78U | 0.401 |
| C26U A87G | 1.04 |
| C26U A87C | 0.953 |
| C26U A87U | 1 |
| G25U A87G | 0.163 |
| C26A G31U | 0.425 |
| C26U A71C | 0.748 |
| C26U A71U | 0.941 |
| C26U A71G | 0.928 |
| C26U C44A | 1.03 |
| C26U C44U | 1.01 |
| C26G C49U | 0.935 |
| C26G C49G | 0.87 |
| G25U C49G | 0 |
| G25U C49A | 0.175 |

| Variant | self-cleavage |
| --- | --- |
| G25U C49U | 0.481 |
| C26A C30G | 0.17 |
| G25U C58A | 0.244 |
| G25C G74A | 0.0639 |
| G25C G74C | 0 |
| C26U C41U | 1.06 |
| C26G A77G | 0.929 |
| C26G A77U | 0.447 |
| C26G U65A | 0.655 |
| C26G C36G | 0.237 |
| C26U A56C | 1.12 |
| C26U A56U | 1.12 |
| G25C U47G | 0.119 |
| C26A U37C | 1.13 |
| C26A C44U | 0.95 |
| C26A C44A | 0.914 |
| C26G C63U | 0.743 |
| C26G C63G | 0.653 |
| C26G C63A | 0.748 |
| C26A A56C | 1.06 |
